Assay results taken from patent US12551573B2, “Compositions and methods for the targeting of PCSK9” (Scribe Therapeutics Inc., priority 2022, dated 2026).
Like-named read-outs stand apart in the source and are kept apart here.

Key:
HBEGF locus = assay type: cell-based, human; settings: for Log2 (fold change): high-throughput screen of dXR repression of the HBEGF gene
B2M locus [1] = assay: B2M repression (HLA-negative cells by flow cytometry) in HEK293T cells transfected with LTRP plasmids; assay type: cell-based, human; settings: for B2M repression by LTRP5 constructs with enhanced repressor domains: LTRP5 without ADD, scaffold 316 spacer 7.165, days 6/7 to 26/27, vs LTRP5-ZIM3; for Mean % HLA-negative cells: HEK293T cells, B2M-targeting spacer 7.37
Experimental: Each construct was tested in triplicate.
Each construct was tested in triplicate. […] Cells were harvested for repression analysis at day 5, day 12, day 21, and day 51 post-transfection.
Each construct was tested in triplicate. […] Cells were harvested for repression analysis at day 8, day 13, day 20, and day 27 post-transfection. […] In addition, cells were also harvested on day 5 post-transfection for gDNA extraction for bisulfite sequencing to assess off-target methylation at the non-targeted VEGFA locus, which was performed using similar methods as described in Example 13.
HEK293T cells were transfected as described in Example 14, except that the cells were transfected with 50 ng each of a plasmid encoding the LTRP construct and a plasmid encoding the gRNA. […] 72 of the 95 top repressor domains were assessed together in one experiment where B2M expression was measured at 7, 14, 19, and 26 days after transfection, and the data shown in Tables 57-60.

HBEGF gene = assay type: cell-based, human; settings: HEK293T; HBEGF-targeting spacer; toxin 0-2000 ng/mL
B2M locus [2] = assay: B2M reactivation by 5-azadC (DNMT1 inhibitor) in transfected HEK293T cells; settings: B2M-targeting gRNA, 5-azadC 0-20 uM
Experimental: These transfected HEK293T cells were subsequently re-seeded at ˜30,000 cells well of a 96-well plate and were treated with 5-aza-2′-deoxycytidine (5-azadC), a DNMT1 inhibitor, at concentrations ranging from 0 μM to 20 μM. […] Treatments for each dose of 5-azadC for each experimental condition were performed in triplicates.

[3] = change in abundance of each domain in the library before and after diphtheria toxin selection
[4] = abundance of each domain in the library before and after diphtheria toxin selection, HEK293T cells
[5] = HEK293T, 50 days post-transfection, spacer 7.37 (B2M)
[6] = HEK293T, 73 days post-transfection, spacer 7.37 (B2M)

B1: DOMAIN_29304: one of the nine most effective repressor domains (protein, listed as Peromyscus maniculatus)
chain: VTYNDVHVDITQEEWALMDPSQRNLYKDVMVETYMNLTAIGYNWENLEVEEPCQNPLKHGRHERPHTGEKPYEYNQCGKAFAQP
- Log2 (fold change) (HBEGF locus; [3]): 4.0496
- B2M repression by LTRP5 constructs with enhanced repressor domains (B2M locus [1]; HEK293T): most effective repressor domains

B2: DOMAIN_16694 (protein, listed as Callorhinus ursinus)
chain: SYGSFSFEDVTVGFTQEEWQHLGPAQRILYRDVMLENYSHLVSVGCCIPKPEVILKLEQGEQPWILEEESPSQSYPGLPTD
- Log2 (fold change) (HBEGF locus; [4]): 2.0979

B3: DOMAIN_26749: repressor domain derived from the king cobra, Ophiophagus hannah; SEQ ID NO: 135 (protein)
chain: STPVTFEDVVVYFTAAEWVHLTNWQRDFYQAVMMETYELVASVAGDGVPMAEDEEGGVERPVWQYIPRGKRRRKTPQPRAD
modifications: Ophiophagus hannah
- log 2 (fold change) of abundance before and after selection (HBEGF locus; HEK293T, dCasX491 fusion, scaffold 174 spacer 34.28, 2 ng/ml diphtheria toxin for 48 hours): highest log 2 (fold change)
- Log2 (fold change) (HBEGF locus; [3]): 5.4323
- B2M repression by LTRP5 constructs with enhanced repressor domains (B2M locus [1]; HEK293T): most effective repressor domains

B4: CasX 491: catalytically-active CasX variant 491 (protein)
chain: QEIKRINKIRRRLVKDSNTKKAGKTGPMKTLLVRVMTPDLRERLENLRKKPENIPQPISNTSRANLNKLLTDYTEMKKAILHVYWEEFQKDPVGLMSRVAQPASKKIDQNKLKPEMDEKGNLTTAGFACSQCGQPLFVYKLEQVSEKGKAYTNYFGRCNVAEHEKLILLAQLKPEKDSDEAVTYSLGKFGQRALDFYSIHVTKESTHPVKPLAQIAGNRYASGPVGKALSDACMGTIASFLSKYQDIIIEHQKVVKGNQKRLESLRELAGKENLEYPSVTLPPQPHTKEGVDAYNEVIARVRMWVNLNLWQKLKLSRDDAKPLLRLKGFPSFPLVERQANEVDWWDMVCNVKKLINEKKEDGKVFWQNLAGYKRQEALRPYLSSEEDRKKGKKFARYQLGDLLLHLEKKHGEDWGKVYDEAWERIDKKVEGLSKHIKLEEERRSEDAQSKAALTDWLRAKASFVIEGLKEADKDEFCRCELKLQKWYGDLRGKPFAIEAENSILDISGFSKQYNCAFIWQKDGVKKLNLYLIINYFKGGKLRFKKIKPEAFEANRFYTVINKKSGEIVPMEVNFNFDDPNLIILPLAFGKRQGREFIWNDLLSLETGSLKLANGRVIEKTLYNRRTRQDEPALFVALTFERREVLDSSNIKPMNLIGVDRGENIPAVIALTDPEGCPLSRFKDSLGNPTHILRIGESYKEKQRTIQAKKEVEQRRAGGYSRKYASKAKNLADDMVRNTARDLLYYAVTQDAMLIFENLSRGFGRQGKRTFMAERQYTRMEDWLTAKLAYEGLSKTYLSKTLAQYTSKTCSNCGFTITSADYDRVLEKLKKTATGWMTTINGKELKVEGQITYYNRYKRQNVVKDLSVELDRLSEESVNNDISSWTKGRSGEALSLLKKRFSHRPVQEKFVCLNCGFETHADEQAALNIARSWLFLRSQEYKKYQTNKTTGNTDKRAFVETWQSFYRKKLKEVWKPAV
modifications: listed as DNA
- protection from diphtheria toxin (HBEGF gene): protects at all doses
- Mean % HLA-negative cells (B2M locus [1]; 6 days post-transfection): 76.167%
- Mean % HLA-negative cells (B2M locus [1]; 13 days post-transfection): 81.167%
- Mean % HLA-negative cells (B2M locus [1]; 20 days post-transfection): 83.633%
- Mean % HLA-negative cells (B2M locus [1]; 27 days post-transfection): 80.933%
- % HLA-negative cells (mean) (B2M locus [1]; HEK293T, 50 days post-transfection, spacer 0.0 (non-targeting)): 0.29%
- % HLA-negative cells (mean) (B2M locus [1]; [5]): 76.57%
- % HLA-negative cells (mean) (B2M locus [1]; HEK293T, 73 days post-transfection, spacer 0.0 (non-targeting)): 0.71%
- % HLA-negative cells (mean) (B2M locus [1]; [6]): 73.30%
- B2M repression (HLA-negative cells) (B2M locus [1]; HEK293T, LTRP #1, #4, #5 plasmids and controls, scaffold 174 spacer 7.37, time course to 73 days): durable silencing of the B2M expression
- repression of B2M expression by day 58 (B2M locus [1]; HEK293T, plasmid with B2M-targeting gRNA scaffold 174 spacer 7.37): ~75%
- reactivation of the B2M gene upon 5-azadC treatment (B2M locus [2]): did not exhibit reactivation of the B2M gene

B5: dCasX491: catalytically-dead CasX variant, SEQ ID NO: 4 (protein)
chain: QEIKRINKIRRRLVKDSNTKKAGKTGPMKTLLVRVMTPDLRERLENLRKKPENIPQPISNTSRANLNKLLTDYTEMKKAILHVYWEEFQKDPVGLMSRVAQPASKKIDQNKLKPEMDEKGNLTTAGFACSQCGQPLFVYKLEQVSEKGKAYTNYFGRCNVAEHEKLILLAQLKPEKDSDEAVTYSLGKFGQRALDFYSIHVTKESTHPVKPLAQIAGNRYASGPVGKALSDACMGTIASFLSKYQDIIIEHQKVVKGNQKRLESLRELAGKENLEYPSVTLPPQPHTKEGVDAYNEVIARVRMWVNLNLWQKLKLSRDDAKPLLRLKGFPSFPLVERQANEVDWWDMVCNVKKLINEKKEDGKVFWQNLAGYKRQEALRPYLSSEEDRKKGKKFARYQLGDLLLHLEKKHGEDWGKVYDEAWERIDKKVEGLSKHIKLEEERRSEDAQSKAALTDWLRAKASFVIEGLKEADKDEFCRCELKLQKWYGDLRGKPFAIEAENSILDISGFSKQYNCAFIWQKDGVKKLNLYLIINYFKGGKLRFKKIKPEAFEANRFYTVINKKSGEIVPMEVNFNFDDPNLIILPLAFGKRQGREFIWNDLLSLETGSLKLANGRVIEKTLYNRRTRQDEPALFVALTFERREVLDSSNIKPMNLIGVARGENIPAVIALTDPEGCPLSRFKDSLGNPTHILRIGESYKEKQRTIQAKKEVEQRRAGGYSRKYASKAKNLADDMVRNTARDLLYYAVTQDAMLIFANLSRGFGRQGKRTFMAERQYTRMEDWLTAKLAYEGLSKTYLSKTLAQYTSKTCSNCGFTITSADYDRVLEKLKKTATGWMTTINGKELKVEGQITYYNRYKRQNVVKDLSVELDRLSEESVNNDISSWTKGRSGEALSLLKKRFSHRPVQEKFVCLNCGFETHAAEQAALNIARSWLFLRSQEYKKYQTNKTTGNTDKRAFVETWQSFYRKKLKEVWKPAV
- % HLA-negative cells (mean) (B2M locus [1]; [5]): 0.49%
- % HLA-negative cells (mean) (B2M locus [1]; [6]): 0.83%

B6: DOMAIN_16811 (protein, listed as Balaenoptera acutorostrata)
chain: PQASVSFKDVTVEFTQEEWWQMDSAQRTLYRDVMLENYSHLVSVGYCFTKPELIFMLEQGEDPWLLEKEFVNRSSPEESQP
- Log2 (fold change) (HBEGF locus; [4]): 3.5141

B7: DOMAIN_16738 (protein)
chain: MAFEDVAVYFSQEEWGLLDTTQRALYRHVMLENFTLVTSLGLSTSRPHVVIQLERGEEPWVPSGTDTTLSRTTYRRRNPGS
modifications: Pan troglodytes
- Log2 (fold change) (HBEGF locus; [4]): 3.5957
